Experimental data published in patent publication US12661385B2, “Modulation of mTORCI activity and autophagy via CIB2-RHEB interaction” (University of Maryland, Baltimore, priority 2018, dated 2026).

Columns and labels:
mTORC1 = test: Phosphoprotein immunoblots of HEK293 cells overexpressing increasing amounts of CIB2, mTORC1 targets; assay type: cell-based
Protocol: (§1) FIG. 3. […] Note the stronger interaction between CIB2 and Rheb S20N variant as compared to Q64L variant (GDP vs GTP mimetic, respectively). c, CIB2 preferentially interacts with GDP-loaded Rheb is further confirmed by co-IP experiments of HA-GST-Rheb immobilized on […] and loaded with either GDP or GTPγS, followed by incubation with tdTomato-CIB2 lysate. d, Proposed model of CIB2 function in retinal sensory cells. […] Loss of CIB2 results in reduced autophagy and exacerbated mTORC1 signaling, thus leading to RPE pathology and secondary PR dysfunction. e, f Immunoblots from RPE/choroid lysates from dry AMD or control age-matched donors indicate reduced CIB2 expression, overactive mTORC1 and reduced autophagy, quantified in panel f. Unpaired two-tailed 1 test was used to determine statistical significance. p value of <0.05 (*), <0.01 (**), and <0.001 (***). Please note that one control sample (ψ) is outliner and is highly variant from the rest, Re-quantification, omitting the highly variant control sample, is shown in FIG. 15. g.
mTORC1 integrates various metabolic and amino acid signals through its nutrient-sensing arm and growth signals, which converge on the small GTPase Rheb, via the TSC complex (Wolfson et al., Cell Metabolism 26, 301-309 (2017)). We first tested if CIB2 is a specific negative regulator of mTORC1 and/or mTORC2. We used HEK293 cells, because the mTORC1 signaling pathway is well-established in this cell line, and to expand CIB2 functions beyond the RPE.
80% confluent HEK293 cells in 10-cm dishes were transfected for co-IP experiments with 10 μg of indicated plasmid/s using the polyethylenimine (PEI) method (3:1::PEI:DNA). 2 plates per condition were used. 36 hr later the plates were chilled on ice, washed once with ice-cold PBS, and cells collected in ice-cold PBS and centrifuged for 2 min at 1500 RPM at 4° C. Cell pellet was then lysed in IP buffer (0.3% CHAPS, 40 mM HEPES, 2.5 mM MgCl2, 1× Protease inhibitors, 1 mM Na orthovanadate, 10 mM Na glycerophosphate, 10 mM NaF) on ice for 20 min, followed by centrifuging at full speed for 20 min at 4° C. […]

GDP-bound Rheb = molecular target: T1, GDP-bound Rheb (Homo sapiens, UniProt Q15382); test: Co-IP with bead-immobilized HA-GST-Rheb loaded with GDP or GTPγS; assay type: binding; conditions: glutathione bead-immobilized HA-GST-Rheb (WT) loaded with GDP or non-cleavable GTPγS, tdTomato-CIB2 lysate added
T1 construct: host or cells: HEK293
T1 sequence (Q15382 whole entry): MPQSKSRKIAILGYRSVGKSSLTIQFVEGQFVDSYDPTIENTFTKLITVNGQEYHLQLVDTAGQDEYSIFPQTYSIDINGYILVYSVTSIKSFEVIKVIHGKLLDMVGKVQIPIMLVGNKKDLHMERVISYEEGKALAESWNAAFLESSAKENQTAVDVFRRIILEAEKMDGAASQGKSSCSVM
Protocol: as §1
We tested the essentiality of nucleotide binding state of Rheb using co-IP assays. […] Next, we used the Q64L and S20L Rheb variants, which mimic the GTP- and GDP-bound state, respectively.
For GTPγS of GDP loading experiments, cleared lysates of HEK293 cells over-expressing HA-GST-Rheb were prepared as described in buffer lacking MgCl2. […]

mTORC2 = test: Phosphoprotein immunoblots of HEK293 cells overexpressing increasing amounts of CIB2, mTORC2 target; assay type: cell-based
Protocol: as §1
mTORC1 integrates various metabolic and amino acid signals through its nutrient-sensing arm and growth signals, which converge on the small GTPase Rheb, via the TSC complex (Wolfson et al., Cell Metabolism 26, 301-309 (2017)). We first tested if CIB2 is a specific negative regulator of mTORC1 and/or mTORC2. […]

Rheb = test: Co-IP of tdTomato-CIB2 with HA-GST-Rheb and Rheb variants; assay type: binding; conditions: co-IP assay
Protocol: as §1
We tested the essentiality of nucleotide binding state of Rheb using co-IP assays. […] Next, we used the Q64L and […] Rheb variants, which mimic the GTP- and GDP-bound state, respectively. […]

B1: CIB2: calcium and integrin binding protein 2, over-expressed in cells from plasmid constructs; SEQ ID NO:1 (human), SEQ ID NO:2 (mouse) (protein)
chain: MGNKQTIFTEEQLDNYQDCTFFNKKDILKLHARFYELAPNLVPMDYRKSPIVHVPMSLIIQMPELRENPFKERIVEAFSEDGEGNLTFNDFVDMFSVLCESAPRELKANYAFKIYDFNTDNFICKEDLEMTLARLTKSELEEDEVVLVCDKVIEEADLDGDGKLGFADFEDMIAKAPDFLSTFHIRI
modifications: left off: large carriers
Phosphorylation of 4E-BP1 (mTORC1): decreasing phosphorylation
Phosphorylation of S6K1 (mTORC1): decreasing phosphorylation
Phosphorylation of ULK1 (mTORC1): decreasing phosphorylation
Binding to GDP-bound vs GTP-bound Rheb (GDP-bound Rheb): binds more strongly to GDP-bound Rheb than to GTP-bound Rheb
mTORC2-mediated phosphorylation of AKT (mTORC2): no changes
Binding preference among Rheb-WT, Q64L (GTP mimetic) and S20L (GDP mimetic) variants (Rheb): bound preferentially to the S20L variant
